A value given as a limit tells only on which side of the number the result lay.

In assay [1] the target is Adeno-associated virus 8 (AAV8) virion (adeno-associated virus 8). The assay can be described thus: co-IP/LC-MS/MS, AAV8 + human serum vs PBS control.
In assay [2] the target is Adeno-associated virus 9 (AAV9) virion (adeno-associated virus 9). Nature of the assay: co-IP with ADK9/LC-MS/MS, AAV9 + human serum vs control.
Assay [3] concerns the target Adeno-associated virus 2 (AAV2) virion (adeno-associated virus 2). The assay can be described thus: cell-based or functional assay.
The target in assay [4] is Adeno-associated virus 8 (AAV8) virion (adeno-associated virus 8). The assay can be described thus: cell-based or functional assay.
For assay [5], the target named is Haploid virus AAV2/8 1:1 (adeno-associated virus 2; adeno-associated virus 8). The assay can be described thus: cell-based or functional assay.
Assay [6] addresses Haploid virus AAV2/8 1:3 (adeno-associated virus 2; adeno-associated virus 8). Nature of the assay: cell-based or functional assay.
Assay [7] deals with Haploid virus AAV2/8 3:1 (adeno-associated virus 2; adeno-associated virus 8). The assay can be described thus: cell-based or functional assay.

Chain of Fibronectin, P02751 32-2477 (P02751 32-2477 limits assumed): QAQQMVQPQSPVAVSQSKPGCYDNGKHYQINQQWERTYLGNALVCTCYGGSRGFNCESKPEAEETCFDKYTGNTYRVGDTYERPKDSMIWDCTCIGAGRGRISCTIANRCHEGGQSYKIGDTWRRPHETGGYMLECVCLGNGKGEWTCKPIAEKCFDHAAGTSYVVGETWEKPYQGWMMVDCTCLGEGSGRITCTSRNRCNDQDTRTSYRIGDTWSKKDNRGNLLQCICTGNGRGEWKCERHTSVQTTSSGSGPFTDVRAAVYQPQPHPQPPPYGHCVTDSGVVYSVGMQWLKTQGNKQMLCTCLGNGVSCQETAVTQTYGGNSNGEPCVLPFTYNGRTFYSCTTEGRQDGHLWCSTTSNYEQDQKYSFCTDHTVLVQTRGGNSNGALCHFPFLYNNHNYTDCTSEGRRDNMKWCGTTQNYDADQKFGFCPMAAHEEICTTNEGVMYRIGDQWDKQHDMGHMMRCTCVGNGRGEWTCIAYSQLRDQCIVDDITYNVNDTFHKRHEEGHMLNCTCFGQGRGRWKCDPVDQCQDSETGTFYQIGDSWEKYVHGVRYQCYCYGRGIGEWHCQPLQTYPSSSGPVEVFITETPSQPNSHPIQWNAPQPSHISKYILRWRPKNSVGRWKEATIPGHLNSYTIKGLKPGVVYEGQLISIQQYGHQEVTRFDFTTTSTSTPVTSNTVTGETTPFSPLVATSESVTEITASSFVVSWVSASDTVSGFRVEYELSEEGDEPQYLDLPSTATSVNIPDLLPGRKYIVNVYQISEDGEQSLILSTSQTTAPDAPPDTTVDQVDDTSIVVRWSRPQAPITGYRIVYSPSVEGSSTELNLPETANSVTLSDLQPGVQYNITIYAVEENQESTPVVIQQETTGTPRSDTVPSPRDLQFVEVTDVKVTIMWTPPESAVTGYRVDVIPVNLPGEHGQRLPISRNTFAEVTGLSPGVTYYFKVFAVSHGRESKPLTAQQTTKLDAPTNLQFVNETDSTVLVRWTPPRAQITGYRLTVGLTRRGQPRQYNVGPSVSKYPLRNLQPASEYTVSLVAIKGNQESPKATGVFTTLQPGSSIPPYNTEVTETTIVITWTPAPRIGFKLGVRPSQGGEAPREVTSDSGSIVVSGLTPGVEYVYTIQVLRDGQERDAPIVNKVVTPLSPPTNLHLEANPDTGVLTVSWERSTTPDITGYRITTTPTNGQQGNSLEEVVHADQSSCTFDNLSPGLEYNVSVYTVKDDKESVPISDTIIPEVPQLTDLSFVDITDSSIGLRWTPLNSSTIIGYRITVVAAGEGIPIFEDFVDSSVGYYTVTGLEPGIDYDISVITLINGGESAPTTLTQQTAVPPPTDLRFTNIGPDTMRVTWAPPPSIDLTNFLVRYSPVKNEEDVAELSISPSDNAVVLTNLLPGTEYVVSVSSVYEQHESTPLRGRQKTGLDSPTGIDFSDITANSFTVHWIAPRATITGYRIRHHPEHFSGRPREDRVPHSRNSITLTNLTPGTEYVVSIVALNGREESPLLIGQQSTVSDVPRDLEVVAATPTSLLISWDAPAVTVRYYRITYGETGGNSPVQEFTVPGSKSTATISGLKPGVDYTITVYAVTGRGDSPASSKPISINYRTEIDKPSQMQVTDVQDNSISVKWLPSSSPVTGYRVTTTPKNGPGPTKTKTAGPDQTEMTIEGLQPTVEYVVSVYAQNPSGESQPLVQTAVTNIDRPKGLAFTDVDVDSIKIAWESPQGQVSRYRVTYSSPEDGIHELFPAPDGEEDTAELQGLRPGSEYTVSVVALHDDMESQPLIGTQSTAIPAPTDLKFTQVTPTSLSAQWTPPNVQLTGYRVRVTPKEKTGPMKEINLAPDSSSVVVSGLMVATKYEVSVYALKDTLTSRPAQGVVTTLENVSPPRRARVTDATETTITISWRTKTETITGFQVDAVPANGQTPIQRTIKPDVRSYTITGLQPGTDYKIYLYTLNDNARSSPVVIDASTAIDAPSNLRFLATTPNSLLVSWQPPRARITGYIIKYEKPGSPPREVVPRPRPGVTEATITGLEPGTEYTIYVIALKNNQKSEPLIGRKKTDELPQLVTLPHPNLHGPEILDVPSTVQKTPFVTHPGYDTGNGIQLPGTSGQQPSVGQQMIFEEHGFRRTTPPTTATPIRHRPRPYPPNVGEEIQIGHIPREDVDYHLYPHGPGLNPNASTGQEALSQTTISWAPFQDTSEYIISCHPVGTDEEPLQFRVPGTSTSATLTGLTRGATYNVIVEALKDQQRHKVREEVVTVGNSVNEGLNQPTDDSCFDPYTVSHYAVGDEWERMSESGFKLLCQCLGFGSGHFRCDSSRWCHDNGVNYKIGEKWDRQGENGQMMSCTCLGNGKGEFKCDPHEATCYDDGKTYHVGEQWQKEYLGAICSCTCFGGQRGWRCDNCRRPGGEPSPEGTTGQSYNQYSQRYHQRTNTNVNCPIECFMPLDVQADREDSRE
Chain of Ig kappa chain V-I region EU (P01602 23-117 limits assumed): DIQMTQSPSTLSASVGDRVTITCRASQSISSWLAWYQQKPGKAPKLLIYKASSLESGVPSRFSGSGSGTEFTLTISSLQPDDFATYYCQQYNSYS

As to “Alpha-2-HS-glycoprotein (from UniProt C9JV77 19-301; C9JV77 342-368)”, the fold change in assay [1] and in assay [2] was 3.17 fold throughout.

On to “Complement C4-A (from UniProt P0C0L4 20-1744)”, for which the fold change in assay [1] and in assay [2] was 2.42 fold throughout.

Turning to “Fibrinogen gamma chain (Fragment) (from UniProt C9JU00 1-123)”, the fold change in assay [1] and in assay [2] was 0.417 fold throughout. The Fold increase in assay [2] was determined as 8.36 fold.

On to Fibronectin, P02751 32-2477, for which the fold change in assay [1] was 2.5 fold. In assay [2], the Fold increase was 5.41 fold and the fold change was 2.5 fold.

As for “Ig kappa chain V-I region EU (from UniProt P01602 23-117)”, the fold change in assay [1] and in assay [2] was 3.83 fold each time.

Turning to “Ig kappa chain V-III region SIE (from UniProt P01619 21-116)”, the fold change in assay [1] and in assay [2] was 2.79 fold in each case.

With “Ig lambda-2 chain C regions (from UniProt P0DOY2 1-106)”, the fold change in assay [1] and in assay [2] was 1.5 fold throughout.

The substance Monoclonal antibody A20 returned an A20 neutralizing antibody titer (the dilution at first time inhibits AAV transduction over 50%) (reciprocal dilution) in assay [3] of 640. In addition, the Neutralization antibody titer (reciprocal dilution) in assay [3] is 512; in assay [4] it was under 2; in assay [5], 32; in assay [6], under 2; in assay [7], 2048.

On to Monoclonal antibody ADK8, for which the Neutralization antibody titer (reciprocal dilution) is under 2 in assay [3]; 1024 in assay [4]; 512 in assay [5]; 1024 in assay [6]; 512 in assay [7].

“Platelet factor 4 variant (from UniProt P10720 31-104)”: in assay [1], the fold change amounted to 0.938 fold. Besides, in assay [2], the Fold increase is 1.47 fold and the fold change was 0.938 fold.

On to “Transthyretin (from UniProt P02766 21-147)”, for which the fold change in assay [1] and in assay [2] was 5.55 fold throughout.

Values taken from patent publication EP4707292A2.
